One block for each substance: values may come before it.
What was measured:
[1] = target: arrestin-3 (β-arrestin-2) (UniProt P32121); test: BRET, arrestin-3-Rluc / FLAG-FFA4-eYFP, 5 min; details: for percent of reference: reference: wild type
[2] = target: arrestin-3 (β-arrestin-2) (UniProt P32121); test: kinetic BRET, arrestin-3-Rluc / FFA4-eYFP; details: reference: wild type; sites T347,S350,S357

percent of reference ([1]; sites S360): 85%
Substance: FFA4 (GPR120) (from UniProt Q5NUL3) S360A

other: t½ of association [2]: weaker; reference 46 ± 6
percent of reference ([1]; sites T347,S350,S357): 77%
Substance: FFA4 (GPR120) (from UniProt Q5NUL3) TSS/AAA

other: Emax, % of wild type ([1]; reference: DD/AA, sites T347,S350,S357): 40%
Substance: FFA4 (GPR120) (from UniProt Q5NUL3) TSS/AAA-DD/AA

other: Emax, % of wild type ([1]; reference: TSS/AAA, sites S360): weaker; reference 77 ± 2
percent of reference ([1]; sites T347,S350,S357,S360): 38%
Substance: FFA4 (GPR120) (from UniProt Q5NUL3) TSSS/AAAA

other: Emax, % of wild type ([1]; reference: TSS/AAA, sites T349): same; reference 77 ± 2
percent of reference ([1]; sites T347,T349,S350,S357): 84%
Substance: FFA4 (GPR120) (from UniProt Q5NUL3) TTSS/AAAA

other: Emax, % of wild type ([1]; reference: TSS/AAA, sites T349,S360): weaker; reference 77 ± 2
other: Emax, % of wild type ([1]; reference: TSSS/AAAA, sites T349): same; reference 38 ± 2
other: Emax, % of wild type ([1]; reference: TTSS/AAAA, sites S360): weaker; reference 84 ± 7
percent of reference ([1]; sites T347,T349,S350,S357,S360): 42%
Substance: FFA4 (GPR120) (from UniProt Q5NUL3) TTSSS/AAAAA

other: Emax, % of wild type ([1]; reference: DD/AA, sites T347,T349,S350,S357,S360): 21%
Substance: FFA4 (GPR120) (from UniProt Q5NUL3) TTSSS/AAAAA-DD/AA

other: Emax, % of wild type ([1]; reference: EDD/AAA, sites T347,T349,S350,S357,S360): weaker; reference 69 ± 7
Substance: FFA4 (GPR120) (from UniProt Q5NUL3) TTSSS/AAAAA-EDD/AAA

other: milli-BRET units ([1]; reference: vehicle, sites T347,T349,S350,S357,S360): stronger; reference 63 ± 6
Substance: FFA4 (GPR120) (from UniProt Q5NUL3) TUG-891 10 µM, 5 min

From article PMC4140278
